Measured values: patent publication US20040019926A1 (CROPDESIGN N V, published 2004)

T1: full-length rice OsICK2 protein (Oryza sativa, UniProt A2X9W8 1-262)
T1 construct: The Gal4 parts are not written into the chain; Form 'mature' here means the full-length protein; also called Os2
T1 sequence: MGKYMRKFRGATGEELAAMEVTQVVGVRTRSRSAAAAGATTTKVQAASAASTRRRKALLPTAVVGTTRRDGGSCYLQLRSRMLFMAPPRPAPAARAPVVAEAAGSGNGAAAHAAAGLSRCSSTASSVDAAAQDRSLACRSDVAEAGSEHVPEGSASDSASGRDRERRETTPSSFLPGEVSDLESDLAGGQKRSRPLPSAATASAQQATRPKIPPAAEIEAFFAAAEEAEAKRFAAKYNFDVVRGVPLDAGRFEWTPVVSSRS

B1: empty pBDGal4 vector (Gal4 binding domain alone) (other, UniProt P04386 1-148, looked up)
chain: MKLLSSIEQACDICRLKKLKCSKEKPKCAKCLKNNWECRYSPKTKRSPLTRAHLTEVESRLERLEQLFLLIFPREDLDMILKMDSLQDIKALLTGLFVQDNVNKDAVTDRLASVETDMPLTLRQHRISATSSSEESSNKGQRQLTVSI
notes: Negative control in the yeast two-hybrid assay
B2: empty prey pADGal4 vector (Gal4 activation domain alone) (other, UniProt P04386 761-881, looked up)
chain: PSALFGGANFNQSGNIADSSLSFTFTNSSNGPNLITTQTNSQALSQPIASSNVHDNFMNNEITASKIDDGNNSKPLSPGWTDQTAYNAFGITTGMFNTTTMDDVYNYLFDDEDTPPNPKKE
notes: as for B1

Tests used:
[1] = biological target: T1, full-length rice OsICK2 protein; assay: yeast two-hybrid, OsICK2 in prey pADGal4 with empty pBDGal4
Description: (§1) The interactions of OsICK2 and OsICK4 with Cdc2-Os1 and CycD3-Os (the rice cyclin D3) were verified using a yeast two hybrid approach. In a preliminary step, yeast strain PJ69-4A (MATa trp1-901 leu2-3,112 ura3-52 his3-200 gal4(deleted) gal80(deleted) LYS2::GAL1-HIS3 GAL2-ADE2 met2::GAL7-lacZ) was transformed with Cdc2-Os1 in bait vector pBDGal4 (Stratagene), using the lithium acetate method, well known to those skilled in the art. The rice Cdc2-Os1 was previously obtained by PCR as described in Example 1. The Cdc2-Os1 was also cloned in the pADGal4 prey vector. The junctions between the pBDGal4 binding domain and the pADGal4 activation domain and the Cdc2-Os1 fragment were sequenced to verify correct in-frame fusion.
(§2) Two putative positive clones were identified. A second round of screening on these clones was performed. Pure positive plaques were isolated and phagemids were excised therefrom. Sequencing of the two clones reveiled that the clones were identical with a full length size of 1.7 kb. The clones contain an ORF of 1140 bp encoding a protein of 380 amino acids. This protein is designated cyclin D3 from rice (CycD3-Os). […]
(§3) As positive controls, growth was assessed in yeast containing the prey vector pADGal4 with Cdc2-Os1 and retransformed with the bait vector pBDGal4 containing OsICK2 or CycD3-Os. […]

[2] = biological target: T2, rice cyclin-dependent kinase Cdc2-Os1 (rice, UniProt P29618 1-294); assay: yeast two-hybrid, Cdc2-Os1 in prey pADGal4 with empty pBDGal4
T2 construct: The Gal4 parts are not written into the chain
Description: as §1, §2, §3

[3] = biological target: T1, full-length rice OsICK2 protein; assay: yeast two-hybrid, OsICK2 in bait pBDGal4 with empty prey pADGal4
Description: as §1, §2, §3

[4] = biological target: T2, rice cyclin-dependent kinase Cdc2-Os1; assay: yeast two-hybrid, Cdc2-Os1 in bait pBDGal4 with empty prey pADGal4
Description: as §1, §2, §3

T2 sequence (P29618 whole entry, the tested form may be a part): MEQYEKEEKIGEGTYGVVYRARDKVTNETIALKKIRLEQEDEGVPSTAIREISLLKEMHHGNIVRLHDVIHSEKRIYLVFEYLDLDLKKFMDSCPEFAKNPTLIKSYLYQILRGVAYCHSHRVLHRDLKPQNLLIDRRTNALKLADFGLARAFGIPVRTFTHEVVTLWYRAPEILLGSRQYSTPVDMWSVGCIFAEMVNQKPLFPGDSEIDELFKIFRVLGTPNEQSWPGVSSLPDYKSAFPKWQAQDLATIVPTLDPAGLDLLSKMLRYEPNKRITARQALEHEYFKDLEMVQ

Binder	binding result [1]	binding result [2]	binding result [3]	binding result [4]
B1	no binding	no binding		
B2			no binding	no binding
